Measured values: patent US20150099282A1, “NADP-DEPENDENT ALANINE DEHYDROGENASE” (EVONIK INDUSTRIES AG, priority 2012, published 2015)

B1: Bacillus subtilis alanine dehydrogenase (BasAlaDH) variant D196A/L197R (Asp196Ala, Leu197Arg), SEQ ID No. 1 (with His-Tag: SEQ ID No. 22) (Bacillus subtilis … (protein)
chain: MASRGSHHHHHHGAIIGVPKEIKNNENRVALTPGGVSQLISNGHRVLVETGAGLGSGFENEAYESAGAEIIADPKQVWDAEMVMKVKEPLPEEYVYFRKGLVLFTYLHLAAEPELAQALKDKGVTAIAYETVSEGRTLPLLTPMSEVAGRMAAQIGAQFLEKPKGGKGILLAGVPGVSRGKVTIIGGGVVGTNAAKMAVGLGADVTIIARNADRLRQLDDIFGHQIKTLISNPVNIADAVAEADLLICAVLIPGAKAPTLVTEEMVKQMKPGSVIVDVAIDQGGIVETVDHITTHDQPTYEKHGVVHYAVANMPGAVPRTSTIALTNVTVPYALQIANKGAVKALADNTALRAGLNTANGHVTYEAVARDLGYEYVPAEKALQDESSVAGA
B2: Bacillus subtilis alanine dehydrogenase (BasAlaDH), wild type (N-terminal His6-tag) (Bacillus subtilis subsp. subtilis str. 168) (protein)
chain: MIIGVPKEIKNNENRVALTPGGVSQLISNGHRVLVETGAGLGSGFENEAYESAGAEIIADPKQVWDAEMVMKVKEPLPEEYVYFRKGLVLFTYLHLAAEPELAQALKDKGVTAIAYETVSEGRTLPLLTPMSEVAGRMAAQIGAQFLEKPKGGKGILLAGVPGVSRGKVTIIGGGVVGTNAAKMAVGLGADVTIIDLNADRLRQLDDIFGHQIKTLISNPVNIADAVAEADLLICAVLIPGAKAPTLVTEEMVKQMKPGSVIVDVAIDQGGIVETVDHITTHDQPTYEKHGVVHYAVANMPGAVPRTSTIALTNVTVPYALQIANKGAVKALADNTALRAGLNTANGHVTYEAVARDLGYEYVPAEKALQDESSVAGA

Experiments:
Format in all cases: biochemical, Bacillus subtilis
[1] = substrate: NC(=O)C1=CN([C@@H]2O[C@H](COP(=O)(O)OP(=O)(O)OC[C@H]3O[C@@H](n4cnc5c(N)ncnc54)[C@H](O)[C@@H]3O)[C@@H](O)[C@H]2O)C=CC1; experiment: KM and kcat for NADH/NADPH, reductive amination of pyruvate, BasAlaDH mutant D196A/L197R; conditions: other: reductive amination of pyruvate, 5 mM pyruvate, 200 mM ammonium acetate, 10-500 μM NADH, 0.5 μM enzyme, Hepes/NaOH pH 8.3, 30.0 °C
Excerpt: (§1) The conserved aspartate residue was the starting point for constructing the BasAlaDH enzyme variants D196A/L197R, with the SheAlaDH structure being used as template. […] As a result of the substitution L197R, the new cosubstrate specificity is favoured further as the result of the formation of salt bridges between the introduced arginine residue and the NADPH phosphate group.
(§2) The gene of the Bacillus subtilis AlaDH (SEQ ID No. 4) was amplified from the plasmid pUC18-AlaDH by polymerase chain reaction (PCR) using the oligodeoxy nucleotides AlaDHfw (SEQ ID No. 11) and AlaDHrv (SEQ ID No. 12), cleaved at the 3′ end using the restriction enzyme KpnI and ligated with the expression vector pASK-IBA35(+) (IBA GmbH, Göttingen) which had been cleaved with the restriction enzymes EheI and KpnI. The resulting expression plasmid pASK-IBA35(+)-AlaDH on which the BasAlaDH with an N-terminal His6-tag is encoded was verified by means of analytical restriction digestion and DNA sequencing. The plasmid which codes for the enzyme variant D196A/L197R was generated by site-directed mutagenesis using the oligodeoxy nucleotides AlaDH_D196A/L197Rfw (SEQ ID No. 13) and AlaDH_D196A/L197Rrv (SEQ ID No. 14), using the QuikChange method. The resulting expression plasmid pASK-IBA35(+)-AlaDH(D196A/L197R) was verified by means of DNA sequencing.
(§3) The expression plasmids for the BasAlaDH and its variant D196A/L197R were subsequently used for transforming E. coli BL21 (Sambrook et al. (2001) Molecular cloning: a laboratory manual, 3rd edition. Cold Spring Harbor Laboratory Press). Gene expression was induced in each case in LB medium (Sambrook et al. 2001) supplemented with 100 μg/ml ampicillin (2 L culture volume in a 5-l shake flask) at 30° C. in the exponential growth phase at OD550=0.5 by addition of 0.2 μg/ml anhydrotetracyclin (aTc; Acros, Geel, Belgium). After an induction time of 3 hours, the culture was harvested, and the cells were taken up in 40 mM Hepes/NaOH pH 7.5, 0.5 M NaCl and disrupted mechanically in a French press homogenizer (G. Heinemann, Schwäbisch Gmünd). The clear supernatant was applied to a Chelating Sepharose™ Fast Flow column loaded with Zn^2+ (bed volume 2.8 ml; GE Healthcare, Munich), and the enzymes with His6-tag fusion were eluted using a linear imidazole/HCl concentration gradient of from 0 to 500 mM in 40 mM Hepes/NaOH pH 7.5, 0.5 M NaCl. The elution fractions were concentrated by ultrafiltration and purified chromatographically by means of gel filtration on Superdex200 (GE Healthcare) in the presence of 25 mM Hepes/NaOH pH 8.3.
(§4) The Michaelis constant (KM) and the turnover number (kcat) of the two purified enzymes for the cosubstrates NADH and NADPH were determined with the aid of reductive amination of pyruvate, and the catalytic efficiency (kcat/KM) was calculated (Table 1).

[2] = substrate: NC(=O)C1=CN([C@@H]2O[C@H](COP(=O)(O)OP(=O)(O)OC[C@H]3O[C@@H](n4cnc5c(N)ncnc54)[C@H](OP(=O)(O)O)[C@@H]3O)[C@@H](O)[C@H]2O)C=CC1; experiment: as above; conditions: other: reductive amination of pyruvate, 5 mM pyruvate, 200 mM ammonium acetate, 10-500 μM NADPH, 0.5 μM enzyme, Hepes/NaOH pH 8.3, 30.0 °C
Excerpt: as §1, §2, §3, §4

[3] = substrate: NC(=O)C1=CN([C@@H]2O[C@H](COP(=O)(O)OP(=O)(O)OC[C@H]3O[C@@H](n4cnc5c(N)ncnc54)[C@H](O)[C@@H]3O)[C@@H](O)[C@H]2O)C=CC1; experiment: KM and kcat for NADH/NADPH, reductive amination of pyruvate, wild type BasAlaDH; conditions: other: reductive amination of pyruvate, 5 mM pyruvate, 200 mM ammonium acetate, 10-500 μM NADH, 0.5 μM enzyme, Hepes/NaOH pH 8.3, 30.0 °C
Excerpt: as §2, §3, §4

[4] = substrate: NC(=O)C1=CN([C@@H]2O[C@H](COP(=O)(O)OP(=O)(O)OC[C@H]3O[C@@H](n4cnc5c(N)ncnc54)[C@H](OP(=O)(O)O)[C@@H]3O)[C@@H](O)[C@H]2O)C=CC1; experiment: as above; conditions: other: reductive amination of pyruvate, 5 mM pyruvate, 200 mM ammonium acetate, 10-500 μM NADPH, 0.5 μM enzyme, Hepes/NaOH pH 8.3, 30.0 °C
Excerpt: as §2, §3, §4

Protein	Km [1] [µM]	kcat [1] [s⁻¹]	kcat/Km [1] [μM^−1/min^−1]	Km [2] [µM]	kcat [2] [s⁻¹]	kcat/Km [2] [μM^−1/min^−1]	Km [3] [µM]	kcat [3] [s⁻¹]	kcat/Km [3] [μM^−1/min^−1]	Km [4] [µM]	kcat [4] [s⁻¹]	kcat/Km [4] [μM^−1/min^−1]
B1	887 ± 360	44.48 ± 12	3.0	32 ± 3	28.83 ± 0.65	54.1						
B2							14 ± 2	14 ± 0.35	59.9	448 ± 135	11.1 ± 1.9	1.5
